This assay has as its target T1, human RNA polymerase II (12-subunit enzyme) (human, UniProt P24928 1-1970; P30876 1-1174; P19387 1-275; O15514 1-142; P19388 1-210; P61218 …).
T1 construct: RPB1, largest subunit of human pol II; RPB2, subunit of human pol II; RPB3, subunit of human pol II; RPB4, subunit of human pol II; RPB5, subunit of human pol II; RPB6, subunit of human pol II; RPB7, subunit of human pol II; RPB8, subunit of human pol II; RPB9, subunit of human pol II; RPB10, subunit of human pol II; RPB11, subunit of human pol II; RPB12, subunit of human pol II; The CTD of RPB1 …
The assay is described as follows: co-sedimentation. The conditions noted are these: both partners purified.

B1: human TFIIF (Rap74 and Rap30) (complex)
chain 1: MAALGPSSQNVTEYVVRVPKNTTKKYNIMAFNAADKVNFATWNQARLERDLSNKKIYQEEEMPESGAGSEFNRKLREEARRKKYGIVLKEFRPEDQPWLLRVNGKSGRKFKGIKKGGVTENTSYYIFTQCPDGAFEAFPVHNWYNFTPLARHRTLTAEEAEEEWERRNKVLNHFSIMQQRRLKDQDQDEDEEEKEKRGRRKASELRIHDLEDDLEMSSDASDASGEEGGRVPKAKKKAPLAKGGRKKKKKKGSDDEAFEDSDDGDFEGQEVDYMSDGSSSSQEEPESKAKAPQQEEGPKGVDEQSDSSEESEEEKPPEEDKEEEEEKKAPTPQEKKRRKDSSEESDSSEESDIDSEASSALFMAKKKTPPKRERKPSGGSSRGNSRPGTPSAEGGSTSSTLRAAASKLEQGKRVSEMPAAKRLRLDTGPQSLSGKSTPQPPSGKTTPNSGDVQVTEDAVRRYLTRKPMTTKDLLKKFQTKKTGLSSEQTVNVLAQILKRLNPERKMINDKMHFSLKE
chain 2: MAERGELDLTGAKQNTGVWLVKVPKYLSQQWAKASGRGEVGKLRIAKTQGRTEVSFTLNEDLANIHDIGGKPASVSAPREHPFVLQSVGGQTLTVFTESSSDKLSLEGIVVQRAECRPAASENYMRLKRLQIEESSKPVRLSQQLDKVVTTNYKPVANHQYNIEYERKKKEDGKRARADKQHVLDMLFSAFEKHQYYNLKDLVDITKQPVVYLKEILKEIGVQNVKGIHKNTWELKPEYRHYQGEEKSD
notes: Rap74, large subunit of human TFIIF; Rap30, small subunit of human TFIIF; also called dimeric TFIIF complex
In the case of B1, the binding result is listed as “binds”.

For the origin of these results see PMC3066130, “Molecular Architecture of the Human Mediator–RNA Polymerase II–TFIIF Assembly” (PLoS Biology, 2011).
